Data from patent US12528864 (GlaxoSmithKline, dated 2026).

Legend:
[1] = target: T1, recombinant human CD96v2 (human, UniProt P40200-2 22-503, limits assumed, biotinylated (site not stated)); assay: MSD-SET solution equilibrium titration, antibody titrated against constant biotinylated CD96, free antigen detected
T1 construct: Soluble recombinant protein used in MSD-SET; also called Biotinylated human CD96 protein
T1 sequence (looked up): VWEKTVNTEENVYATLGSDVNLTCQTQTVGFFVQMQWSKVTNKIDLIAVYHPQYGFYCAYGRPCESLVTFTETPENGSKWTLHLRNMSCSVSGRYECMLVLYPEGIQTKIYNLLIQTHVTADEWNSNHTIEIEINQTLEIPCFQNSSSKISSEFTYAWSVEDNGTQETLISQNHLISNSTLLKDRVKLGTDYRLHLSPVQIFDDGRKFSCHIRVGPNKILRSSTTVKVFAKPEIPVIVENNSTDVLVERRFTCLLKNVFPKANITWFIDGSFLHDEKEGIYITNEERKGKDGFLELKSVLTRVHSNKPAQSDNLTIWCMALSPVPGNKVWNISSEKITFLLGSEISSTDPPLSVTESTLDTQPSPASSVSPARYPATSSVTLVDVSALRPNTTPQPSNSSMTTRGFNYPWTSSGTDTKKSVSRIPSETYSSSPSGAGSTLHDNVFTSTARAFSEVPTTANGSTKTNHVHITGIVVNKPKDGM

[2] = target: T2, blood derived cynomolgus monkey CD96v2 on transiently transfected HEK cells (cynomolgus monkey); assay: flow cytometry on transiently transfected HEK cells (Cyno blood derived CD96v2)
T2 construct: also called Blood derived Cyno CD96v2

[3] = target: T2, blood derived cynomolgus monkey CD96v2 …; assay: flow cytometry on transiently transfected HEK cells; lower end of range, n = 3
[4] = target: T3, human CD96v2 expressed on cells (CHO cells; transiently transfected HEK cells) (human, UniProt P40200-2 22-569); assay: as above
T3 construct: whole, on cells; the cell is named under assay; also called CHO-huCD96; hCD96v2
T3 sequence (looked up): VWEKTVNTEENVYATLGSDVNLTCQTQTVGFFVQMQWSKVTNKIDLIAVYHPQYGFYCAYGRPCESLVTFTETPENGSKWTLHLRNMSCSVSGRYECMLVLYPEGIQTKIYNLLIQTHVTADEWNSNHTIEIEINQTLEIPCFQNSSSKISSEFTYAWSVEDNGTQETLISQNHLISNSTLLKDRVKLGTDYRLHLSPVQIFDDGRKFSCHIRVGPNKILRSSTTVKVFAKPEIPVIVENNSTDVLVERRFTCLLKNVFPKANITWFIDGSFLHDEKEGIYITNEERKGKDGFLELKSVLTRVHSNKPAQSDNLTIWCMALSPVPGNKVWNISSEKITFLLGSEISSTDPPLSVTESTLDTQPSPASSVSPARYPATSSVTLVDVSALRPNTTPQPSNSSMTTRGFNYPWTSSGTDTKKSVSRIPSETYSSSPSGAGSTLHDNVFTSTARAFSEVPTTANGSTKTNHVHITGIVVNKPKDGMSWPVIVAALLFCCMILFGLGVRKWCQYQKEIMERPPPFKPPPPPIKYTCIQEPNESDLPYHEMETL

[5] = target: T4, cynomolgus monkey CD96v2 expressed on cells (CHO cells; transiently transfected HEK cells) (cynomolgus monkey, UniProt A0A2K5TWV6 22-569); assay: as above
T4 construct: the cell is named under assay; also called CHO-cyCD96; Cyno CD96v2
T4 sequence: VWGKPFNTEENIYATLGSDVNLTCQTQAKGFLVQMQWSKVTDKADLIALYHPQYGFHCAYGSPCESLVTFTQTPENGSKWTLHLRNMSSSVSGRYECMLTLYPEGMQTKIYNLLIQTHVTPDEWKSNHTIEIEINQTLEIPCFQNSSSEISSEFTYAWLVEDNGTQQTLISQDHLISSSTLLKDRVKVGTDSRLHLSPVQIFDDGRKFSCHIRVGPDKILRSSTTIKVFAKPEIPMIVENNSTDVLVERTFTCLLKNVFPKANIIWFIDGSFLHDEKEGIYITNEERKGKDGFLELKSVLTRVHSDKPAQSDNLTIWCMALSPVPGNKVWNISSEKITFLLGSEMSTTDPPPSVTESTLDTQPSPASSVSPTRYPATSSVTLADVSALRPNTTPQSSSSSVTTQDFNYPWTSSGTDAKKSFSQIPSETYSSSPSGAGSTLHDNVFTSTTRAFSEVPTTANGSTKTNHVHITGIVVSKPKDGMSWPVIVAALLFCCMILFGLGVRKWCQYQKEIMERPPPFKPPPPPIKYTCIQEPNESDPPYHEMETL

[6] = target: T5, cynomolgus monkey CD96v1 on transiently transfected HEK cells (cynomolgus monkey); assay: as above
T5 construct: whole, on cells; also called Cyno CD96v1

[7] = target: T6, human CD96v1 on transiently transfected HEK cells (human, UniProt P40200 22-585); assay: as above
T6 construct: whole, on cells
T6 sequence (looked up): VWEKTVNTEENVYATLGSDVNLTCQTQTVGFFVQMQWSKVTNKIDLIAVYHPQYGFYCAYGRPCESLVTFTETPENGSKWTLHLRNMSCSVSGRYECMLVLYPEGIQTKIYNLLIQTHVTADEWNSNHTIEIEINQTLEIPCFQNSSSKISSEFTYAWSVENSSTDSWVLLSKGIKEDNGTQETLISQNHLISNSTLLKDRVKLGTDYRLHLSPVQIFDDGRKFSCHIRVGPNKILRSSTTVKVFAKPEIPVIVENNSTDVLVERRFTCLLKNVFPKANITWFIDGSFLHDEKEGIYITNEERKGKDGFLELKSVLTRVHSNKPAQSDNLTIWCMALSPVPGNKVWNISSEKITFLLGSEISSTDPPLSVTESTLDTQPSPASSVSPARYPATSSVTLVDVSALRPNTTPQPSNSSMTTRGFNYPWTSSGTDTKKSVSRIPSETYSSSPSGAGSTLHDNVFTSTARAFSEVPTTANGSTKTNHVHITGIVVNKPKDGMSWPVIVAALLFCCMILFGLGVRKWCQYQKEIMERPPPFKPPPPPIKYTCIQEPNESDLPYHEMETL

IC50 (read off the curve) [1]: ~0.06 nM
EC50 (read off the curve) [2]: ~9 nM
EC50 [3]: 5.27 nM
EC50 [4]: 4.72 nM
EC50 [5]: 5.54 nM
EC50 [6]: 6.83 nM
EC50 [7]: 3.13 nM
B1: 42Y073-86F08-66 (antibody)
heavy: not shown
light: DIQLTQSPSSLSASVGDRVTITCRASQSISSYLNWYQQKPGKAPKLLIYAASSLQSGVPSRFSGSGSGTDFTLTISSLQPEDFATYYCQQVLHTITFGGGTKVEIKRTVAAPSVFIFPPSDEQLKSGTASVVCLLNNFYPREAKVQWKVDNALQSGNSQESVTEQDSKDSTYSLSSTLTLSKADYEKHKVYACEVTHQGLSSPVTKSFNRGEC
notes: also called GSK 6097608; GSK6097608
